For 1 substance, ratio Bb band + FH / Bb band without FH (with FH-CSA+ C3NeF IgGs of patients), ratio Bb band + FH / Bb band without FH (with FH-CSA- C3NeF IgGs of patients) and ratio Bb band + FH / Bb band without FH (with control IgGs) results are on record in PMC6248175.

The target in this experiment is C3b (UniProt P01024). The experiment is described as follows: microplate/western blot assay; protocol 1, formation step: C3b-coated wells; FB 1,000 ng/ml, FD 10 ng/ml, 10 mM MgCl2, 100 ug/ml control or patients' IgGs, 12 min at 25 C, without or with FH 2,640 ng/ml during formation; density of the Bb band with FH over that without FH. A general note: A western blot detects proteins with antibodies after separation by electrophoresis.

Consider “factor H (from UniProt P08603 19-1231) (natural protein)”, for which the ratio Bb band + FH / Bb band without FH (with FH-CSA+ C3NeF IgGs of patients) was 0.58, the ratio Bb band + FH / Bb band without FH (with FH-CSA- C3NeF IgGs of patients) was determined as 0.32 and the ratio Bb band + FH / Bb band without FH (with control IgGs) was determined as 0.32.
